# In PMC2824112, “A comparative analysis of the fluorescence properties of the wild-type and active site mutants of the hepatitis C virus autoprotease NS2-3” (Biochimica et Biophysica Acta, 2010):
# B1: JFH-1 NS2-3 wild-type precursor (HCV genotype 2a NS2-3 autoprotease, residues 907-1210) (domain or fragment)
# chain: RAALTHVPYFVRAHALIRVCALVKQLAGGRYVQVALLALGRWTGTYIYDHLTPMSDWAASGLRDLAVAVEPIIFSPMEKKVIVWGAETAACGDILHGLPVSARLGQEILLGPADGYTSKGWKLLAPITAYAQQTRGLLGAIVVSMTGRDRTEQAGEVQILSTVSQSFLGTTISGVLWTVYHGAGNKTLAGLRGPVTQMYSSAEGDLVGWPSPPGTKSLEPCKCGAVDLYLVTRNADVIPARRRGDKRGALLSPRPISTLKGSSGGPVLCPRGHVVGLFRAAVCSRGVAKSIDFIPVETLDVVTR
# notes: The wild type auto-cleaves at 25 °C with about 30% efficiency overnight; also called WT NS2-3; NS2-3 precursor; not shown: FLAG, C-terminal, kept
# Target: the molecule itself
# Assay: cross-linking; glutaraldehyde (final 0.001-0.002% v/v in refolding buffer) on refolded NS2-3 precursor (0.2 uM), 50 ul, 25 °C, 5 min; SDS-PAGE and western blot with anti-FLAG; monomer to dimer
protein,measurement,value
B1,stoichiometry N,2
